Test results taken from publication PMC3174958.

Molecular target: EPO-hyFc (human)
Test: Western blotting; purified EPO-hyFc blotted with anti-EPO and anti-human IgG antibodies; gel conditions not told

stoichiometry N: 2
Substance: EPO-hyFc (Fc fusion)
